Test results as given in publication PMC6914340.

Legend:
Assay in all cases: flow cytometry on cells; on-yeast binding titration: single yeast colonies each displaying an IL-6 variant; biotinylated gp130 from 1 μM, eight concentrations in a 1/3 dilution series; apparent KD
[1] = molecular target: IL-6 variant Mut3 displayed on yeast (human) (UniProt P05231)
[2] = molecular target: IL-6 variant Mut7 displayed on yeast (human) (UniProt P05231)
[3] = molecular target: IL-6 variant Mut1 displayed on yeast (human) (UniProt P05231)

Measured: Kd

biotinylated gp130 ectodomain (SD1-SD3, amino acids 23–321), sequence (P40189 23-321): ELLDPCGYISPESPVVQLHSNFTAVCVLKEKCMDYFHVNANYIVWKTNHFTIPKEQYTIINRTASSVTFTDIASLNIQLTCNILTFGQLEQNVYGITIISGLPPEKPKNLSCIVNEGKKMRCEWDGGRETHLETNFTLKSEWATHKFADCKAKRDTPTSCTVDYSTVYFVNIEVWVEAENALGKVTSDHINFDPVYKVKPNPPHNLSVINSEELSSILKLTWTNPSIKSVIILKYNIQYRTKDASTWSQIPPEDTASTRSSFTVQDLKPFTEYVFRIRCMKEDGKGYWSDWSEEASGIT
IL-6 variant Mut3 displayed on yeast (human), sequence (P05231 30-212, change not shown): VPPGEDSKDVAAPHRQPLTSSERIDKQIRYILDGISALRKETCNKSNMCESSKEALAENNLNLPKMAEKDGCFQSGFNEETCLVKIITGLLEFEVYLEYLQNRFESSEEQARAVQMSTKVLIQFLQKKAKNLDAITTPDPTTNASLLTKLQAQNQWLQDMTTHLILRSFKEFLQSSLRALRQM
IL-6 variant Mut1 displayed on yeast (human), sequence (P05231 30-212, change not shown): as above
IL-6 variant Mut7 displayed on yeast (human), sequence (P05231 30-212, change not shown): as above

biotinylated gp130 ectodomain (SD1-SD3, amino acids 23–321) (from UniProt P40189 23-321) (domain or fragment)
2 nM: all assays above
